Test results published in patent publication US20210388105A1 (ELPISCIENCE SUZHOU BIOPHARMA, published 2021).
Read-outs that look alike come from different tables or passages of the source.

Assays:
[1] = biological target: T1, human CD39 (full length, on cells) (human, UniProt P49961 1-510); test: cell-based or functional assay
T1 sequence: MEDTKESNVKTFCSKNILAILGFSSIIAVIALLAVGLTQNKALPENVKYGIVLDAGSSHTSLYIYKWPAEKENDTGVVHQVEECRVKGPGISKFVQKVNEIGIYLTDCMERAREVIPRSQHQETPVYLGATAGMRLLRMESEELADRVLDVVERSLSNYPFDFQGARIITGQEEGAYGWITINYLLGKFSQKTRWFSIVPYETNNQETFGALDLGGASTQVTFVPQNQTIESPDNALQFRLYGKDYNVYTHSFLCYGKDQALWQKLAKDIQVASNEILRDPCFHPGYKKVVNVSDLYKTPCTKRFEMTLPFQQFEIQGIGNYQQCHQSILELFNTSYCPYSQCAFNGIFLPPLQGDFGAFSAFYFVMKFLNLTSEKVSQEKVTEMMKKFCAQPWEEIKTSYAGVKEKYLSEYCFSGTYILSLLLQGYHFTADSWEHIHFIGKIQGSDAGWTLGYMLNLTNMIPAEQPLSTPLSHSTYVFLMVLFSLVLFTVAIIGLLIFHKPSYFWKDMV

[2] = biological target: T2, cynomolgus CD39 (full length, on CHOK1-cynoCD39 cells) (cynomolgus monkey, UniProt A0A7N9DGH8 1-510); test: FACS, CHOK1-cynoCD39 cells
T2 construct: whole, on cells; also called cCD39
T2 sequence: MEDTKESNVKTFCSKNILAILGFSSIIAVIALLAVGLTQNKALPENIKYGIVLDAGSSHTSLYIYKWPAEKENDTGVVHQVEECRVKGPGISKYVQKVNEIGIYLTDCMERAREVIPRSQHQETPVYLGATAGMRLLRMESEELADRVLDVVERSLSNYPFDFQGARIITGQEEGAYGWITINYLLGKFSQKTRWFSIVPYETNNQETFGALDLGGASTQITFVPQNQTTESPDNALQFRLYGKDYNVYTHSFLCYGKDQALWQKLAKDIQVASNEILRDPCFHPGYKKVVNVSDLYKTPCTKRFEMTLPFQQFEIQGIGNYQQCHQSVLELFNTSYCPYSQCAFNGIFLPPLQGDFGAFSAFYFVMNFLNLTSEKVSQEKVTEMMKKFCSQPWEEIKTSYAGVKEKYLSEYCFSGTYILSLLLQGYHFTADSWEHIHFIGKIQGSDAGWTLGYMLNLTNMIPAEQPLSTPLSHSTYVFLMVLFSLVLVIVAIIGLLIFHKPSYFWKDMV
Protocol: CHOK1-hCD39, CHOK1-cCD39, CHOK1-mCD39 and CHOK1-blank cells were maintained in culture medium according to ATCC procedure. Cells were collected and re-suspended in blocking buffer at a density of 3×10⁶ cells/ml. Cells were transferred to 96 well FACS plates at 100 μl/well (3×10⁵ cells/well), the plates were centrifuged and washed twice with FACS buffer (PBS, 1% FBS, 0.05% Tween-20). 4-folds serial dilution of anti-CD39 antibodies were prepared in FACS buffer starting from 30 μg/ml. Reference antibody 9-8B and mouse/human control IgG were used as positive and negative controls, respectively. Cells were re-suspended in 100 μL/well diluted antibodies, and the plates were incubated at 4° C. for 60 min. […] The plates were washed with FACS buffer, and cells were re-suspended in 100 μL/well of PBS. Cells were then analyzed with FACSVerse™ and mean fluorescence intensity were determined. Full binding curves were generated on the CD39 expressing cells by testing a range of antibody concentrations. Apparent affinity was determined for each antibody using Prism software. […]
Reference antibodies T895 and 1394 were tested in parallel as control antibodies. […] Maximum signal (mean fluorescence intensity, MFI) differed between cells for each antibody may result from their different expression level.

[3] = biological target: T3, mouse CD39 (full length, on CHOK1-mCD39 cells) (mouse, UniProt P55772 1-510); test: FACS, CHOK1-mCD39 cells
T3 construct: whole, on cells
T3 sequence (looked up): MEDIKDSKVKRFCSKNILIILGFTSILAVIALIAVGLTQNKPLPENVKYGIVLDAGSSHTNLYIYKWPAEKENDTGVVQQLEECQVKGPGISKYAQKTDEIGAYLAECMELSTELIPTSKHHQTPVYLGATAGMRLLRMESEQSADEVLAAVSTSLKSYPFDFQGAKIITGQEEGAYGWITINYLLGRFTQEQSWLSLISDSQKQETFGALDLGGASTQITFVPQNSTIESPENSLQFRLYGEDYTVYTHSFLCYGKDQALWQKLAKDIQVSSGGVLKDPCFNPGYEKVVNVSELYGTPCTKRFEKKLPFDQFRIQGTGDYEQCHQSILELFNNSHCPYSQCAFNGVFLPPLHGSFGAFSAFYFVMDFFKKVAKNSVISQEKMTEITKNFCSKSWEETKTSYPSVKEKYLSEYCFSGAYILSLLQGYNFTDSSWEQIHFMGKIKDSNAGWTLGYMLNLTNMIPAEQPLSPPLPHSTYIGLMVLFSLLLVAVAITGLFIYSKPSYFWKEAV
Source text: (§1) FACS were used to determine binding of the antibodies to cell lines expressing CD39 naturally (SK-MEL-28) or recombinantly (CHOK1-hCD39, CHOK1-cynoCD39, and CHOK1-mCD39), or with cells lacking CD39 expression (CHOK1-blank) as a negative control.
(§2) CHOK1-hCD39, CHOK1-cCD39, CHOK1-mCD39 and CHOK1-blank cells were maintained in culture medium according to ATCC procedure. Cells were collected and re-suspended in blocking buffer at a density of 3×10⁶ cells/ml. Cells were transferred to 96 well FACS plates at 100 μl/well (3×10⁵ cells/well), the plates were centrifuged and washed twice with FACS buffer (PBS, 1% FBS, 0.05% Tween-20). 4-folds serial dilution of anti-CD39 antibodies were prepared in FACS buffer starting from 30 μg/ml. Reference antibody 9-8B and mouse/human control IgG were used as positive and negative controls, respectively. Cells were re-suspended in 100 μL/well diluted antibodies, and the plates were incubated at 4° C. for 60 min. […] The plates were washed with FACS buffer, and cells were re-suspended in 100 μL/well of PBS. Cells were then analyzed with FACSVerse™ and mean fluorescence intensity were determined. Full binding curves were generated on the CD39 expressing cells by testing a range of antibody concentrations. Apparent affinity was determined for each antibody using Prism software.

[4] = biological target: T2, cynomolgus CD39 (full length, on …); test: FACS, CHOK1-cynoCD39 cells; remark: listed apart in the source
Source text: as §1, §2

| Binder | ATPase activity inhibition IC50 on MOLP-8 cells [1] [nM] | ATPase activity inhibition IC50 on SK-MEL-5 cells [1] [nM] | EC50 [2] [nM] | EC50 [4] [nM] | binding result [3] |
| --- | --- | --- | --- | --- | --- |
| Antibody 9-8B (antibody, V domains shown) VH: QIQLVQSGPELKKPGETVKISCKASGYTFTHYGMNWVKQAPGKGLKWMGWINTYTGELTYADDFKGRFAFSLETSASTAYLQINNLKNEDTATYFCARRAYYRYDYVMDYWGQGTSVTVSS VL: DIVMTQSQKFMSTSVGDRVSVTCKASHNVGTNVAWYQQKPGQSPKALIYSASYRYSGVPGRFTGSGSGTDFTLTISNVQSEDLAEYFCHQYNNYPYTFGGGTKLEIK |  |  |  | 1.6 | no binding (tested: 30 µg/ml highest concentration) |
| mAb14 (antibody, V domains shown, mouse hybridoma antibody) VH: EVKLEESGGGLVQPGGSMKLSCVASGFTFSKYWMNWVRQSPEKGLEWVAEIRLKSNKYGTHYAESVKGRFTISRDDSKNNVYLQMNNLRPEDTGIYYCTTQLDLYWFFDVWGAGTTVTVSS VL: DIVMTQSPAILSVTPGDRVSLSCRASQSISDYLHWYQQKSHESPRLLIKYASQSISGIPSRFSGSGSGSNFTLSINSVEPEDVGVYFCQNGHSLPLTFGAGTKLELR |  |  |  | 3.4 | no binding (tested: 30 µg/ml highest concentration) |

The next lines start with results.

| ATPase activity inhibition IC50 on MOLP-8 cells [1] [nM] | ATPase activity inhibition IC50 on SK-MEL-5 cells [1] [nM] | EC50 [2] [nM] | EC50 [4] [nM] | Binder | binding result [3] |
| --- | --- | --- | --- | --- | --- |
| 0.33 | 0.07 | 3.38 |  | hu23.H5L5 (antibody, V domains shown, humanized c23) VH: QVQLVQSGAEVKKPGASVKVSCKASGYNLKDTFLHWVRQAPGQGLEWMGRIDPANGNIKYDPKFQGRVTITADTSANTAYMELISLRSEDTAVYYCANSPYYYGSGYRIFDVWGQGTTVTVSS VL: QIVLTQSPATLSLSPGERATLSCSAFSSVNYMHWYQQKPGQAPRLLIYTTSNLASGIPTRFSGSGSGTSYTLTISSLEPEDFAVYYCQQRSTYPFTFGQGTKLEIK |  |
| 0.51 | 0.09 | 4.19 |  | Antibody T895 (antibody, V domains shown, also called 31895) VH: EVQLQQSGPELVKPGASVKMSCKASGYTFTDYNMHWVKQSHGRTLEWIGYIVPLNGGSTFNQKFKGRATLTVNTSSRTAYMELRSLTSEDSAAYYCARGGTRFAYWGQGTLVTVSA VL: not shown |  |
